System: p53

Substance: GST-COP1
- in vitro ubiquitination of p53 (immunoblot of ubiquitinated species of p53): Only with all of the reaction components and p53 present was COP1 able to directly ubiquitinate p53

Reference: US20080009458
